PMC3616908

Target: Chk1 (UniProt P38147)
Assay: biotinylated 35-mer peptide pull-down, anti-FLAG blot

## Rad9 (from UniProt P14737) T143p peptide
reference: unphosphorylated peptide, sites T143
  binding against the reference: stronger

## Rad9 (from UniProt P14737) T125p peptide
reference: unphosphorylated peptide, sites T125
  binding against the reference: weaker

## Rad9 (from UniProt P14737) T143p peptide, λ phosphatase treated
reference: T143p peptide, untreated or λ phosphatase plus inhibitors, sites T143
  binding against the reference: weaker

## Rad9 (from UniProt P14737) T125pT143p peptide
reference: T125p peptide, sites T143
  binding against the reference: stronger
reference: T143p peptide, sites T125
  binding against the reference: weaker
reference: unphosphorylated peptide, sites T125,T143
  binding against the reference: stronger
